The assay has as its target BD-Barstar D35A. As to the kind of experiment: two-hybrid.

As a reminder, the Kd is the constant that tells how readily two partners part at equilibrium. Higher therefore signals a looser complex.

Take AD-Barnase H102A (enzyme): the Kd lay within 11 to 122 nM.

The values above are taken from article doi:10.1101/553636.
